From the DeepSol protein solubility set

Experiment: soluble on expression in E. coli; label from the status in PepcDB or PDB records

Sequence | soluble on expression in E. coli
MGHHHHHHSHMAHYLFNPFYLRLDCDLSKAYIHRIFASFYMEKEADAHTNEKRSKPMTQQYIVEPKKGLGLKLKKGQILKVVDVEGQQVADFVAYHAKDSYEHLDQGATIDAIHSIHVKVSDHLYSNPVLSRWLPLIEDTGPASMICCWPACRPDIEQALIWEAKRMSFRIRAMTICAVRLSSLAYRSPTCITHLRYCMDTVLDEEGNLSVETPLSDAGDYVRLRAEMDLIVAFSSCPRCNRDIQWRQCDIHTG | not soluble
MGHHHHHHSHMPKAKKVDAVGPAADADITKPELVVPSEDPKTEEIESVEEKTVEKSTEKPVDKKGGRPVRGKKSPGSDEEAMDGEYEADEEEAALEPRRSTRGKRSYDQETGGRSVRKVVKKAKEVNKKPERAPSARGRGQKPAIGNDSTTEDGEEKKSGKNASDTDSDEEAKVVKRPTSGRMSGAPPSARMLALKKKNHDDSE | not soluble
SVDILVIPGHVRGDAAVISKVVGRPVYKGTVSPVYIPDIMKILRSGGKLDTEKPAEEVVKLSDYTSKIVFREAFRVGSLRIPLKPPPLLVVAEIPPTVAEDGIAGLAARMERDGASMVAVGTGFDDDPQVVHEKVRTALSALKDSPVIAETPTLDHAYSALKAGASGVIMPVETAVRLASEKPLPGDAFIIVSGEQPEELAKAVESLRTSGYSKVAVDPSLSPPLLGLLESIERFRRASRLLNVPLVFSAANVAEEVQADSHGVHALLALMALEAGASIYYVVEDSYKSYRSTAEAAEAARYASAARTLFSPRIPLTRLFVVKQPRRPPNPVEPPGERVNVDYIPPSMDRTGYAHIQVDHERGVIMLTFYPAGGEPVTFEGRKPTSLLRALTSRFPVSSEHAGYIGYELAKAEIALALGKTYVQDSPVLVPVWGGLDEE | not soluble
MGSDKIHHHHHHVAISVAGGVRPGKIIEIEHRLYQQLILGKHKASPTLLDDLDLELEADANKLDVEREAILARLMKQIKAKEVFEAVSSQLHETVNNAIEHQLASPELVLAKSEINESQILLLELLLAKNLDATRLRPLISNLSWLCRDLTNMVNSPSFRARRPQSSDVRVTDIKLVMNYIGIENLRTIIPYFCLRNWLPSANAKLLWTTRKLWRYSIVSGIAANALAQLHNTDSALVYSSALLNQLGTSVVLSLSARLFDQTWGAWIREASSSRDKEVYDAVIATEFPAKAVFEQVLSHGHKLNWQLLELLKFEASPLTGLLKELDLTLSYRELSPQAALVARANCYAKVVLLEEMRQIDPQEKRLMFDYYELTEQEVLRLKAQNYRKLDLL | not soluble
MRDFLNTKNQTNQSVYLAILRIKMKTPYQIQFEAFNADDFYTEAHAKLYAQFADNLINEGNYSIVYKGVAHACYTPITIDKAPHLKCFVLAPLAVLPEHQGKGYATQLMEQAESELGADVIFVLGDPKHYARRFNAQHNVALPIGSDESPDFWFARELTTDALDGIGQSSSTIKGVFADPIMWSHPDEQI | not soluble
MADNWGSENVVADAAPATEAPEVALFGKWSLQSVNVSDISLVDYIPVKEKSAKYLPHSAGRFQVRRFRKAACPIVERLANSLMMHGRNNGKKLMTVRIVKHAFEIIYLLTGENPVQVLVNAVINSGPREDSTRIGRAGTVRRQAVDVAPLRRVNQAIWLLCTGAREAAFRNVKTIAECLADELINAAKGSSNSYAIKKKDELERVAKSNR | not soluble
MYVECLSSTTPPIDVFDYLSFFVFNKKDNKYLSIQDVEVKRFSSSKTVWGLPKAMSLETFTDPAKGFIVEGEPCEFGAHVKIASSPVPVDENLPFHKFSWSIRDFSVLKQNDCISKTFAMGGKNWTLTVYPKGDSEADNEFCKYLHLADGEVLSPGEMISVRAQLRALDPRGSKHKTVWLQQWIMAATKARGIPQSLSLADLQEAYLDEDTLNVEIECEVVNSRKMF | soluble
MGSDKIHHHHHHMKYRFENHCVDKQCNLHIFADGKAAHSSTPEDGVNAVTHLAALLSPELNDKPWPKTSASLTVAAMNELVGLGIYAEQFGDLAYKDDFMGPLTLAPTVVVQTQKGTEVTINLRRPVGKTPELLAKQAREALALWQDKHQVQLADIESYWGEPMVMKGAPQQQTLLDVFAHFTGIVDPKPVAIGGSTNSKLFPNALSFGPAMPGVEYTGHTEKEFITHKQFMLNLKMYTAAFIELSAVK | not soluble
MGHHHHHHSHMSIRNWVTRTPSSSPPITPPASETKIMSPRKALTPVSQKSSQAEACSESRNRVKRRLDSSCLESVKQKCVKSCNCVTELDGQVENLHLDLCCLAGNQEDLSKDSLGPTKSSKIEGAGTSISEPPSPISPYASESCGTLPLPLRPCGEGSEMVGKENSSPENKNWLLAMAAKRKAENPSPRSPSSQTPNSRRQSGKTLPSPVTITPSSMRKICTYFHRKSQEDFCGPEHSTEL | not soluble
MKAAAREEAKNIKLLETTEEDKQKNFLFLRLWDRNMDIAMGWKGAQAMQFGQPLVFDMAYENYMKRKELQNTVSQLLESEGWNRRNVDPFHIYFCNLKIDGALHRELVKRYQEKWDKLLLTSTEKSHVDLFPKDSIIYLTADSPNVMTTFRHDKVYVIGSFVDKSMQPGTSLAKAKRLNLATECLPLDKYLQWEIGNKNLTLDQMIRILLCLKNNGNWQEALQFVPKRKHTGFLEISQHSQEFINRLKKAKT | not soluble
MASEPIQITPNLAIPPGEIVERFVRASGAGGQNVNKVSTAVELRFDVAGSPSLPEPLRARLLSRRDRRMTADGVLVIDAQRFRTQDRNREDARERLAEIINACLSVPKRRVATKPSHGAKLRRLDAKRERSQIKRGRSASHWELEHHHHHH | soluble
MSDVDADEARKMAERERKKEEVRKRLEEASRMKKAKKGFLTPERKKKLRKLLMMKAAEDLKQQQMLKEQERQRILQERIIPLPDLDNEDDLEAVYDEIRERLIDLESENYDVSYIVRQKDFEINELTIAVNDLRGKFVKPTLKKVSKTEGKFDKLKKKEATKVDFRAQLKVVDKNEFALDEEDTEKKEKAAWAK | not soluble
MKMISTIQKKETVMVAPIPAKRGRKPAVATAPATGQVQSLTRGLKLLEWIAESNGSVALTELAQQAGLPNSTTHRLLTTMQQQGFVRQVGELGHWAIGAHAFMVGSSFLQSRNLLAIVHPILRNLMEESGETVNMAVLDQSDHEAIIIDQVQCTHLMRMSAPIGGKLPMHASGAGKAFLAQLSEEQVTKLLHRKGLHAYTHATLVSPVHLKEDLAQTRKRGYSFDDEEHALGLRCLAACIFDEHREPFAAISISGPISRITDDRVTEFGAMVIKAAKEVTLAYGGMR | soluble
MNERLKEKLAVLPEQPGCYLMKDKHGTVIYVGKAKSLKERVRSYFTGTHDGKTQRLVEEIADFEYIVTSSNAEALILEMNLIKKHDPKYNVMLKDDKSY | soluble
SNAKDVLGLTLLEKTLKERLNLKDAIIVSGDSDQSPWVKKEMGRAAVACMKKRFSGKNIVAVTGGTTIEAVAEMMTPDSKNRELLFVPARGGLGEDVKNQANTICAHMAEKASGTYRLLFVPGQLSQGAYSSIIEEPSVKEVLNTIKSASMLVHGIGEAKTMAQRRNTPLEDLKKIDDNDAVTEAFGYYFNADGEVVHKVHSVGMQLDDIDAIPDIIAVAGGSSKAEAIEAYFKKPRNTVLVTDEGAAKKLLRDE | soluble
MIAMIVKGGLAMAISNGHVSFKRPAWLGDSITANNGLATVHYHDILAADWDVERSDNLGISGSTIGSRYDAMAVRYQAIPEDADFIAVFGGVNDYGRDQPLGQYGDCDMTTFYGALMMLLTGLQTNWPTVPKLFISAIHIGSDFGGSFSAVTNGLGYRQSDYEAAIAQMTADYGVPHLSLYRDAGMTFAIPAQAAIYSVDTLHPNNAGHRVIARKLQSFLDSHFLEHHHHHH | soluble
MGSDKIHHHHHHMATGTLPDAGQILNSLINSILLVDDDLAVHFANPAAQQLLAQSSRKLFGTPLPELLSYFSLNIGLMQESLQAGQGFTDNEVTLVIDGRSHILSLTAQRLPEGFILLEMAPMDNQRRLSQEQLQHAQQVAARDLVRGLAHEIKNPLGGLRGAAQLLSKALPDPALTEYTKVIIEQADRLRNLVDRLLGPQHPGMHVTESIHKVAERVVKLVSMELPDNVKLIRDYDPSLPELPHDPDQIEQVLLNIVRNALQALGPEGGEIILRTRTAFQLTLHGVRYRLAARIDVEDNGPGIPPHLQDTLFYPMVSGREGGTGLGLSIARSLIDQHSGKIEFTSWPGHTEFSVYLPIRK | not soluble
MEKLYEGKAKVLYREGPDTLRVYFKDEATAFNAQKRGVIPGKGVVNNKVSAALFRYLEAHGVKTHFLEEVSDREMRVRRVEILPLEVILRFRAAGSFARRYGLKEGTPLKMPLLEFSLKNDALGDPLICENAVLALGLTTEGELEGVKAATLRVGDLLKAFFAERGLELVDFKLEFGKVGGEILLADEISPDTMRLWDEKGEPLDKDRFRKDLGGVEEAYREVLRRVLG | soluble
MGSSHHHHHHSSGLVPRGSHMASMDGKQGGMDGSKPAGPRDFPGIRLLSNPLMGDAVSDWSPMHEAAIHGHQLSLRNLISQGWAVNIITADHVSPLHEACLGGHLSCVKILLKHGAQVNGVTADWHTPLFNACVSGSWDCVNLLLQHGASVQPESDLASPIHEAARRGHVECVNSLIAYGGNIDHKISHLGTPLYLACENQQRACVKKLLESGADVNQGKGQDSPLHAVVRTASEELACLLMDFGADTQAKNAEGKRPVELVPPESPLAQLFLEREGASLPKPKP | soluble
MNIISQNTAFGGMQGVFSHQSETLKSEMTFAVYVPPKAIHEPCPVVWYLSGLTCTHANVMEKGEYRRMASELGLVVVCPDTSPRGNDVPDELTNWQMGKGAGFYLDATEEPWSEHYQMYSYVTEELPALIGQHFRADMSRQSIFGHSMGGHGAMTIALKNPERFKSCSAFAPIVAPSSADWSEPALEKYLGADRAAWRRYDACSLVEDGARFPEFLIDQGKADSFLEKGLRPWLFEEAIKGTDIGLTLRMHDRYDHSYYFISTFMDDHLKWHAERLG | not soluble
MNAHEIDYRLYGDDMQFVEIELDPYESVVAEAGGMMMMDDGIVMETVFGDGSSSGKGLLGRLVGAGKRLLTGESLFMTVFTNQGSGKRRVAFAAPYPGKIIPVDLSELGGKLICQKDSFLCAAKGVSVGIEFQRKLGAGFFGGEGFIMQKLEGDGLAFLHAGGTIHRRDLQPGETLRIDTGCLVAMTKDVNYDIEYVGSIKTAFFGGEGLFLATVTGPGAVWVQSLPFSRLADRVLAAAPSAGGRSVGEGSILGGIGDWLDGDD | not soluble
MRQVDFFTLRLFLSAVEEGQIGRAALRENIAPSAATKRIQELEDVVGLRLLERTPKGVILSPAGEVLVRHIRQIFTNVDELRAELSAFSEGVRGEVSVASARSIIAPYLAHEFGAYIRDYPLVDLIVREVENAAIVQAVAQGDADIGVFAAAPALDLSGVDVMPYRQDRMVVVMSHGHRLAQRQSVTFEDLLSENLIVPAALHMALRTAADRLGREFEPKYGVTSAGVAISLAQEGLGVTIQPECLLDLKVFEHAVGVELAESWANRSIHIATARGRAAGPAANLLLKQLLDRPRALSSVSD | not soluble
GMELKSAEEKSLYYRNKIKEVIDEVGKVVVGQKYMINRLLIGICTGGHILLEGVPGLAKTLSVNTLAKTMDLDFHRIQFTPDLLPSDLIGTMIYNQHKGNFEVKKGPVFSNFILADEVNRSPAKVQSALLECMQEKQVTIGDTTYPLDNPFLVLATQNPVEQEGTYPLPEAQVDRFMMKIHLTYLDKESELEVMRRVSNMNFNYQVQKIVSKNDVLEIRNEINKVTISESLEKYIIELVFATRFPAEYGLEAEASYILYGASTRAAINLNRVAKAMAFFNNRDYVLPEDIKEVAYDILNHRIILNYEAEAEGISTRQIIETILRKVNITKA | soluble
